Measured values as given in patent US9616120B2, “Monoclonal antibodies directed to CD20” (VET THERAPEUTICS, INC., priority 2010, dated 2017).
Each block holds one molecule with its values, some of them ahead of it.

What was measured:
canine B cells = conditions: Veterinary Journal, 2006, vol 171, 556; cited from earlier work
Control Cells = assay: FACS binding to control cells; conditions: antibody 2.5 μg/mL
Method: (§1) In the present example, the antibody variants (2.5 μg/mL) are incubated with mammalian cells expressing the recombinant feline CD20 or canine CD20 or control cells. The amount of bound antibody is assessed by detection with a fluorescent-labeled reporter antibody reagent. Several controls are utilized to determine the background fluorescence: (i) CD20 expressing cells are incubated with the conjugated secondary antibody with an isotype antibody, and (ii) Control cells are incubated with the anti-CD20 antibodies.

[1] = system: B lymphocyte cell population; assay: Depletion of B cells in vivo (CD21 flow cytometry); design: species or system beagle dogs; conditions: three consecutive doses 2.4 mg/kg to 5.0 mg/kg
Method: Three beagle dogs receive three consecutive dosages of the antibody CD20-2 (VET305) ranging from […] to 5.0 mg/kg every 5 days. Blood samples drawn at several time points are centrifuged at 2000 RPM for 5 min. Plasma is removed for assay of the antibody levels. The pellet containing peripheral blood leukocytes and red blood cells is resuspended in a plasma equivalent volume of phosphate saline solution (Dulbecco's Phosphate-Buffered Saline, Mediatech, Cat No. 21-030-CM) for quantitation of lymphocyte populations by flow cytometry. A 0.1 mL volume of the cell preparation is distributed into micro-centrifuge tubes. Labeled monoclonal antibody with specificity for the canine lymphocyte surface marker CD21 is added to the vial to identify the B lymphocyte cell population. An additional sample is included with no reagents for determination of autofluorescence. Cells are incubated with the fluorescent antibody for 30 min. Red blood cell were then lyzed for 15 min using a lysis buffer (Red Blood Cell Lysis Buffer, Biolegend,Cat No. 420301) and then washed prior to analysis on a Becton Dickinson FACS instrument.

recombinant canine CD20 = target: T1, recombinant canine CD20 (Canis lupus familiaris, UniProt Q3C2E2, A201T/C77Y/G273E/L198V); assay: Competition experiments (epitope mapping) on CHO cells expressing recombinant canine CD20; format: binding; conditions: unlabelled competitor 25 μg/mL; for percentage of inhibition (PI), labeled antibody CD20-1: biotin-labeled CD20-1 2 μg/mL; for percentage of inhibition (PI), labeled antibody CD20-2: biotin-labeled CD20-2 2 μg/mL; for percentage of inhibition (PI), labeled antibody CD20-5: biotin-labeled CD20-5 2 μg/mL
T1 construct: are transfected with an expression vector encoding the full-length canine CD20 protein; expressed in transfected cells; host or cells: CHO cells (CHO-DG44)
T1 sequence (Q3C2E2 1-297 C77Y/L198V/A201T/G273E): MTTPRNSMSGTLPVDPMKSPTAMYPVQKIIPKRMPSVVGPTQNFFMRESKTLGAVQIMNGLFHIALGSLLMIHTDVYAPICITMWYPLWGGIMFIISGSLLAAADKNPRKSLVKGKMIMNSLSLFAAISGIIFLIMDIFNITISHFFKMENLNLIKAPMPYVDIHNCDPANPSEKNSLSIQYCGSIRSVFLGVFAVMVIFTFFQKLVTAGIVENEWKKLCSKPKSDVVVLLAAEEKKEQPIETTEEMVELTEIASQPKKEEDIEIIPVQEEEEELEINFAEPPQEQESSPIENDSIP
Method: Competition experiments are performed using standard techniques. Briefly, biotinylated recombinant anti-canine CD20 antibodies are titrated on CHO cells expressing recombinant canine CD20. Cells are first incubated with an excess of unlabelled recombinant anti-canine CD20 antibody (25 μg/mL). Thereafter, cells are incubated with a biotin-labeled antibody at 2 μg/mL. After washing, cells are incubated with streptavidin- phycoerythrin and fluorescence is analyzed by flow cytometry. An irrelevant antibody is used as negative control for inhibition. Results are expressed as a ratio between fluorescence intensity of the cells pre-incubated with the unlabelled antibody and the fluorescence intensity obtained for each biotinylated antibody alone. The percentage of inhibition (PI) is calculated by the following formula: PI=[1−(Experimental-Background)/Biotinylated antibody alone−Background)]×100%.

[2] = Half-life of recombinant anti-canine CD20 antibody in beagle dogs (plasma ELISA); format: in vivo
Method: The half-life of the recombinant anti-canine CD20 antibody are assessed. In this example, the half-life of antibody CD20-2 (VET305) is assessed by dosing beagle dogs intravenously. Blood is collected for analysis of CD20-2 in plasma samples harvested as whole blood treated with Ethylenediaminetetraacetic acid (EDTA) as the anticoagulant. An enzyme linked immunosorbant assay (ELISA) method is utilized to determine the plasma antibody concentrations. In this assay, a 96-well plate is coated with a rabbit polyclonal antibody raised to the variable domain of the antibody CD20-2. The antibody CD20-2 in standards or in samples is captured by the polyclonal antibody and is detected by an enzyme conjugated anti-dog secondary antibody. A non-linear regression fit of the standards is used to determine the recombinant antibody concentrations in plasma.

[3] = target: T2, recombinant canine CD20 expressed in HEK cells (Canis lupus familiaris, UniProt Q3C2E2, A201T/C77Y/G273E/L198V); assay: FACS binding to cells expressing recombinant canine CD20; conditions: for mean fluorescence, Canine CD20: antibody 2.5 μg/mL
T2 construct: expressed in transfected cells; host or cells: HEK cells
T2 sequence (Q3C2E2 1-297 C77Y/L198V/A201T/G273E): T1 sequence (Q3C2E2 1-297 C77Y/L198V/A201T/G273E)
Method: as §1, with “The binding of the antibody variants of the present invention raised to canine CD20 can be assessed by FACS analysis for their binding to feline CD20 according to standard immunological techniques (see Veterinary Immunology and Immunopathology 2005, 106:179-196; Brousseau et al., Manual of Immunology Methods, CRC Press, 1998). In” for “In”

[4] = Tolerability of weekly dosing; format: in vivo; conditions: weekly dose over 4 weeks
[5] = system: feline CD20 expressed in mammalian cells; assay: FACS binding to cells expressing recombinant feline CD20; conditions: for mean fluorescence, Feline CD20: antibody 2.5 μg/mL; for binding to feline CD20 (in words): mammalian cells
Method: as §1, with “The binding of the antibody variants of the present invention raised to canine CD20 can be assessed by FACS analysis for their binding to feline CD20 according to standard immunological techniques (see Veterinary Immunology and Immunopathology 2005, 106:179-196; Brousseau et al., Manual of Immunology Methods, CRC Press, 1998). In” for “In”

[6] = target: T3, recombinant canine CD20 expressed in CHO cells (Canis lupus familiaris, UniProt Q3C2E2, A201T/C77Y/G273E/L198V); assay: Binding affinity to recombinant canine CD20 expressed in CHO cells by FACS; conditions: CHO cells expressing canine CD20
T3 construct: are transfected with an expression vector encoding the full-length canine CD20 protein; expressed in transfected cells; host or cells: CHO cells (CHO-DG44)
T3 sequence (Q3C2E2 1-297 C77Y/L198V/A201T/G273E): T1 sequence (Q3C2E2 1-297 C77Y/L198V/A201T/G273E)
Method: The antibody variants of the present invention are compared for their binding affinity to canine CD20. Binding affinity is assessed by measuring binding to the recombinant canine CD20 expressed in CHO cells by FACS analysis as described above.

[7] = multiple doses 2.0 to 5.0 mg/kg

Chain of feline CD20 expressed in mammalian cells (as listed by the source): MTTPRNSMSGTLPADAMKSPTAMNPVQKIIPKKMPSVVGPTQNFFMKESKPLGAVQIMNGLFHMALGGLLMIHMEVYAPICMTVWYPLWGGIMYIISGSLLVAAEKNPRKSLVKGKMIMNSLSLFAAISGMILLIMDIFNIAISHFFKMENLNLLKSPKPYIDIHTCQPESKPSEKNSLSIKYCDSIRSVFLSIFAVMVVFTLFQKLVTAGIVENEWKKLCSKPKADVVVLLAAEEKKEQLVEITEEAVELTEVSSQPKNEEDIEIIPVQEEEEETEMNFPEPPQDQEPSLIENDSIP

Molecule: Rituximab: a monoclonal antibody to the human CD20 antigen
reactivity with canine B cells (canine B cells): does not react with canine B cells

percentage of inhibition (PI), labeled antibody CD20-1 (recombinant canine CD20): 0.90% | percentage of inhibition (PI), labeled antibody CD20-2 (recombinant canine CD20): 124.33% | percentage of inhibition (PI), labeled antibody CD20-5 (recombinant canine CD20): 3.69% | binding to recombinant canine CD20 (in words) [3]: effective binding | mean fluorescence, Canine CD20 [3]: 2340 mean fluorescence units
B1: CD20-2: anti-canine CD20 antibody; full length HC SEQ ID NO. 38, LC SEQ ID NO. 39 (antibody)
heavy: QVQLQQSRAELVRPGASVTLSCKPSGYTFTDYEVHWVKQTPVHGLEWIGAIDPETGGTADNQKFKGKAILTADKSSSTAYMELRSLTSEDSAVYYCTNFVDVWGTGTTVTVSSASTTAPSVFPLAPSCGSQSGSTVALACLVSGYFPEPVTVSWNSGSLTSGVHTFPSVLQSSGLYSLSSMVTVPSSRWPSETFTCNVAHPASKTKVDKPVPKRENGRVPRPPDCPKCPAPEMLGGPSVFIFPPKPKDTLLIARTPEVTCVVVDLDPEDPEVQISWFVDGKQMQTAKTQPREEQFNGTYRVVSVLPIGHQDWLKGKQFTCKVNNKALPSPIERTISKARGQAHQPSVYVLPPSREELSKNTVSLTCLIKDFFPPDIDVEWQSNGQQEPESKYRTTPPQLDEDGSYFLYSKLSVDKSRWQRGDTFICAVMHEALHNHYTQKSLSHSPGK
light: DVVMSQSPSSLAVSVGEKVTMSCKSSQSLLYSGNQKNYLAWYQQKPGQSPRLLIYWASTRESGVPDRFTGSGSGTDFTLTISSVKAEDLAVFYCQQYYNYPLTFGGGTHLTVLGQPKASPSVTLFPPSSEELGANKATLVCLISDFYPSGVTVAWKADGSPITQGVETTKPSKQSNNKYAASSYLSLTPDKWKSHSSFSCLVTHEGSTVEKKVAPAECS
modifications: canis familiaris/mus musculus
notes: anti-canine CD20 antibody; 39
mean fluorescence, Control Cells (Control Cells): 49 mean fluorescence units | duration of depletion after the last dose [1]: at least 10 days | B lymphocyte cell percentage after treatment ([1]; every 5 days): decrease in-B lymphocyte cell percentage | change of half-life values ([2]; consecutive administration): increase after consecutive administration | elimination half life [2, 7]: one week | plasma antibody concentrations (in words) [2, 7]: increases overtime and persists at significant levels | volume of distribution [2, 7]: approximating plasma volume | plasma antibody concentrations (in words) ([2]; single dose 2.4 mg/kg): high plasma antibody concentrations are achieved in all animals | adverse effects on clinical and behavioral observations or body weights [4]: no adverse effects | tolerability [4]: well tolerated locally and systemically | mean fluorescence, Feline CD20 [5]: 2209 mean fluorescence units | binding to feline CD20 (in words) [5]: bind feline CD20

Kd [6]: 1.2 nM | percentage of inhibition (PI), labeled antibody CD20-1 (recombinant canine CD20): 107.07% | percentage of inhibition (PI), labeled antibody CD20-2 (recombinant canine CD20): 6.47% | percentage of inhibition (PI), labeled antibody CD20-5 (recombinant canine CD20): 85.88% | binding to recombinant canine CD20 (in words) [3]: effective binding | mean fluorescence, Canine CD20 [3]: 2769 mean fluorescence units
B2: CD20-5: anti-canine CD20 antibody; full length HC SEQ ID NO. 40, LC SEQ ID NO. 41 (antibody)
heavy: QVQLKQSGAELVKPGASVKISCKASGYTFTDYYINWVKQRPGQGLEWIGKIGPRSGSIYYNEKFKGKATLTADKSSSTAYMQLRSLTSEDSAVYFCAVLKWGQGTLVTVSSASTTAPSVFPLAPSCGSQSGSTVALACLVSGYFPEPVTVSWNSGSLTSGVHTFPSVLQSSGLYSLSSMVTVPSSRWPSETFTCNVAHPASKTKVDKPVPKRENGRVPRPPDCPKCPAPEMLGGPSVFIFPPKPKDTLLIARTPEVTCVVVDLDPEDPEVQISWFVDGKQMQTAKTQPREEQFNGTYRVVSVLPIGHQDWLKGKQFTCKVNNKALPSPIERTISKARGQAHQPSVYVLPPSREELSKNTVSLTCLIKDFFPPDIDVEWQSNGQQEPESKYRTTPPQLDEDGSYFLYSKLSVDKSRWQRGDTFICAVMHEALHNHYTQKSLSHSPGK
light: DAVMTQIPLTLSVTIGQPASISCKSSQSLLHSDGKTYLNWLLQRPGQSPKRLIYLVSKLDSGVPDRFTGSGSGTDFTLKISRVEAEDLGVYYCWQGTHFPQTFGGGTHLTVLGQPKASPSVTLFPPSSEELGANKATLVCLISDFYPSGVTVAWKADGSPITQGVETTKPSKQSNNKYAASSYLSLTPDKWKSHSSFSCLVTHEGSTVEKKVAPAECS
modifications: canis familiaris/mus musculus
notes: anti-canine CD20 antibody; 41
mean fluorescence, Control Cells (Control Cells): 215 mean fluorescence units | mean fluorescence, Feline CD20 [5]: 2048 mean fluorescence units | binding to feline CD20 (in words) [5]: bind feline CD20
